Experiments:
recombinant human TNF-α = target: T1, recombinant human TNF-α (human, UniProt P01375 77-233); test: dual-ligand ELISA: plate-coated HIL-6, Xceptor, 2 ng/ml TNF-α, anti-human TNF-α-biotin
T1 construct: also called rhTNF-α
Experimental: Added to each well of a 96-well plate was 100 μl human HIL-6 solution (5 μg/ml in PBS, pH 7.2-7.4). The plate was covered, and incubated overnight at 4° C. After washing four times with PBS-T, then 250 μl Blocking buffer was added to each well, the plate was covered, and incubated at room temperature for 2 hours (or at 4° C. overnight). After washing the plate three times with PBS-T, added in duplicate wells to the HIL-6 coated plate was 100 μl/well Xceptor TNFRSF1B::HIL6 samples serially diluted three-fold in Working buffer starting at 300 ng/ml. Negative controls included human gp130-Fc chimera (R&D Systems, Minneapolis, Minn.), Enbrel® (etanercept), and Working buffer only. The plate was covered and incubated at room temperature for 1.5 hours. After washing the plate five times with PBS-T, 100 μl per well recombinant human TNF-α (R&D Systems, Minneapolis, Minn.) to 2 ng/ml in Working buffer was added, the plate was covered, and incubated at room temperature for 1.5 hr. After washing the plate five times with PBS-T, 100 μl per well anti-human TNF-α-biotin (R&D Systems) to 200 ng/ml in Working buffer was added, the plate was covered, and incubated at room temperature for 1.5 hr. […] The absorbance of each well was read at 450 nm.

[1] = target: Xceptor fusion protein TRU(XT6)-1042; test: sandwich ELISA: Xceptor captured on anti-human IgG-Fc, sIL-6R, anti-human IL-6R-biotin
Experimental: Added to each well of a 96-well plate was 100 μl goat anti-human IgG-Fc (ICN Pharmaceuticals, Costa Mesa, Calif.) from a 2 μg/ml solution in PBS, pH 7.2-7.4, The plates were covered, and incubated overnight at 4° C. After washing four times with PBS-T, 250 μl Blocking buffer (PBS-T with 3% BSA or 10% normal goat serum) was added to each well, the plate was covered, and incubated at room temperature for 2 hours (or at 4° C. overnight). After washing the plate three times with PBS-T, added in duplicate wells to the anti-human IgG-Fc coated plate was 100 μl/well Xceptor TNFRSF1B::anti-HIL6 samples, positive control anti-human IL-6R(R&D Systems, Minneapolis, Minn.) and negative controls human IgG or human gp130-Fc chimera (R&D Systems), each serially diluted three-fold in Working buffer starting at 300 ng/ml, the plate was covered, and incubated at room temperature for about 1 to 2 hours. After washing the plate five times with PBS-T, added in duplicate wells was 100 μl/well recombinant human sIL-6R(R&D Systems) from a 75 pM solution in Working buffer, the plate was covered, and incubated at room temperature for about 1 to 2 hours. After washing the plate five times with PBS-T, added 100 μl/well anti-human IL-6R-biotin (R&D Systems) from a 100 ng/ml solution in Working buffer, the plate was covered, and incubated at room temperature for about 1 to 2 hours. After washing the plate five times with PBS-T, 100 μl per well horse radish peroxidase-conjugated streptavidin (Zymed, San Francisco, Calif.) diluted 1:4,000 in Working buffer was added, the plate was covered, and incubated at room temperature for 30 minutes. After washing the plate six times with PBS-T, 100 μl per well 3,3,5,5-tetramentylbenzidine (TMB) substrate solution (Pierce, Rockford, Ill.) was added for about 3 to 5 minutes and then the reaction was stopped with 50 μl Stop buffer (1N H₂SO₄) per well. The absorbance of each well was read at 450 nm.

T1 sequence (P01375 77-233 limits assumed): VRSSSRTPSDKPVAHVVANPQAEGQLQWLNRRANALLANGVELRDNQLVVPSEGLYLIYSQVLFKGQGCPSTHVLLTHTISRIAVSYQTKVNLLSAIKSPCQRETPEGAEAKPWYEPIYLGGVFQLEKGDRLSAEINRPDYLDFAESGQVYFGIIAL

| binding result (recombinant human TNF-α) | Binder | binding result [1] |
| --- | --- | --- |
| binds | Xceptor fusion protein TRU(XT6)-1006 (Fc fusion, Xceptor TNFRSF1B::anti-HIL6) LPAQVAFTPYAPEPGSTCRLREYYDQTAQMCCSKCSPGQHAKVFCTKTSDTVCDSCEDSTYTQLWNWVPECLSCGSRCSSDQVETQACTREQNRICTCRPGWYCALSKQEGCRLCAPLRKCRPGFGVARPGTETSDVVCKPCAPGTFSNTTSSTDICRPHQICNVVAIPGNASMDAVCTSTSPTRSMAPGAVHLPQPVSTRSQHTQPTPEPSTAPSTSFLLPMGPSPPAEGSTGDTGEPKSSDKTHTCPPCPAPEAAGAPSVFLFPPKPKDTLMISRTPEVTCVVVDVSHEDPEVKFNWYVDGVEVHNAKTKPREEQYNSTYRVVSVLTVLHQDWLNGKAYACAVSNKALPAPIEKTISKAKGQPREPQVYTLPPSRDELTKNQVSLTCLVKGFYPSDIAVEWESNGQPENNYKTTPPVLDSDGSFFLYSKLTVDKSRWQQGNVFSCSVMHEALHNHYTQKSLSLSPGQRHNNSSLNTRTQKARHSPNSEVQLLESGGGLVQPGGSLRLSCAASGFTFSQYNMIWVRQAPGKGLEWVSWISSSGGTEYADSVKGRFTISRDNSKNTLYLQMNSLRAEDTAVYYCAKDRGYGSGSYGAYDAFDIWGQGTMVTVSSGGGGSGGGGSGGGGSQDIQMTQSPSSLSASVGDRVTITCQTSQSIDRYLNWYQQKAGEAPKLLIYAASSLQSGVPSRFSGSGSGTDFTLTISSLQPEDFASYYCQQSYRTPRTFGQGTKVEIK |  |
|  | recombinant human sIL-6R (receptor, Bought soluble receptor; also called human soluble IL6R; IL6R alone) LAPRRCPAQEVARGVLTSLPGDSVTLTCPGVEPEDNATVHWVLRKPAAGSHPSRWAGMGRRLLLRSVQLHDSGNYSCYRAGRPAGTVHLLVDVPPEEPQLSCFRKSPLSNVVCEWGPRSTPSLTTKAVLLVRKFQNSPAEDFQEPCQYSQESQKFSCQLAVPEGDSSFYIVSMCVASSVGSKFSKTQTFQGCGILQPDPPANITVTAVARNPRWLSVTWQDPHSWNSSFYRLRFELRYRAERSKTFTTWMVKDLQHHCVIHDAWSGLRHVVQLRAQEEFGQGEWSEWSPEAMGTPWTESRSPPAENEVSTPMQALTTNKDDDNILFRDSANATSLPVQD | no binding (tested: Xceptor from 300 ng/ml; sIL-6R 75 pM) |
